Results taken from the DeepSol protein solubility set.

Assay: soluble on expression in E. coli; label from the status in PepcDB or PDB records

Soluble on expression in E. coli, not soluble:
MGSDKIHHHHHHMTNAFKGIPEELLKPHASPCVSIFMPTSRTFPDNTQDPVRFKNLVSRAEADGIAFSTKREMAPLIERLRLLQDDASFWNHTLDGLAVFISPDYFRIFRLQQSVLEQAHVTDAFYIRPLIRIYQIVERFQVLALTRSEVKLYEGTRDHLDEIELAPEVPKTMTDALGTEITPPHMTIASYGGTGTAMRHGHSSRKDEEALDNERFFRAVDQGINEYHSSSSGLPLVLVALPEHQGLFRSISRNQRLVAEGIEIDPAALGLEAMRQKAWQVMEPYRERKIDQMIARFREAEGGKLGSDNPYAIAIAAVAGNVSHLLLDGQKFWPGQIDPVSGDILLDEASQASGRDVFEELGAAVLARGGEVLVLPSERMPSASGVAAIFRHD, MGSDKIHHHHHHMNLNPIINNFQRPIRKVQICCILIFSCAACSLNIPYENQYSDPDAITTVTAARELLASAYDAIPKPEFSLSVLSDDFQPTFLINLNADLNNLYKWHPKPMEDLSNSLWEKYYSAIAIANTVLERIHYVSPISDSDKQELQCIVSEAKTLKAYCYFNLLRLFAPTYPEGPEKDGIILKERFELAFLKRSSISECVNAIRQLLTEAVTVDNRPSQVYWFSRQSAYYLLAALELYAENYDKAEEYALKILSSTNAYNVLAPVHYKKLWEQEPCEECIFSLHTTNSYYTDMNYERKKGDYFTINSTLTQLYTANDIRYEATVYPQEMPGESIGETLPVLYLGKYNKQNWNYKPIQYINKLRVSGICFILAEAYCQDQKGHDALALEVINNYLAQREAPLLDTSLSGAPLLKAILQEKWKEFAGEGERYFDLKRYRKSLLSDWNLSATMKNKPIKPDDYRWLFPIPKGEYLYNENISQNAGWTKVEK, SLGHWQLASKPTVLKGLPASTGVAIGEFWFDNTQPSLSDVFPSSTLDKEREQELLLVAIERALNDFRRMRKKFDSEINKDALAIFDLFTHLLNDPMLRGDLKKQIEKGDRADWALRQVVETYSNRFARMSDVYLRERAQDIRELGQRLLYFLHNSEQENAAIDRPIILVANELTATLLASVPKEHLLAVVSLEGGANSHAAILSRALGVPAVMGANINTDVVNGKLGIVDGYTGEIFLEPNRQLLREYRSLVSEESELFAMVNKDLA, MLTFLIPTAKEMTIPKESHPHLLPQDSQAILKIMAAMTTEDLAKSYRIKEESAKKEQQRWQDMASQQSLAYPAYQLFNGLMYRHIKRDKLTTQEQAYLTQQVYITSSFYGIIPANHPIAEHRHDFHTRIKIEGQSLKSYWRPCYNQFAKEHPQVISLLSSEFDDVFSKDCKQLWISPKFMAEKEGQFKTHSTISKKARGAFLTACMENNCQTVDSLKSLVFAGFYYHPDLSTDHEFVYIKKEA, MVDYHYFKSKLNHFYGRYVGYNQRPVFFDIDQTFPELNHITRHFPDIKREFENVQANVKEFPRYHDIDPGESAISNTTEKNWNVFMLYLLGYQLKEARLLCPELCNLLEGIPHLIQAFFSILEPGKSIPLHEGPYIGYLRYHLGIHVPQNNPPQILVNNQTYTWKEGEAVLFDDSWPHEVRNTSDDYRAVLIIDVLRPMPFLPQLVNQFVTHVIARYFYGRKVMKRAMQYGGEVKPLAL, MAHHHHHHMSSITGAAYSSPEYTHCIRDSRFRHNVYEPEADTFLFLDALDKDAELLRSIRPDRCVEVGCGSGAVITHLRCLLMPSVAAAATQELEAETPELCCGASGIRSAVGGPMFCAVDVNPLALEATAITWTETLLKYFRETVLAAFYERIFQSAVPTSLAAPVVLSAEGVSPPLTRVDADDPTSSALSASTFCLHRFHGDLLNALPRGNSAPALFDVVLFNPPYVPTSLKELQDAITQRDVITTAWCGGPRGRVVLDRFLRQLPSVLSRRGVCYVVLIKENNATDVVAFAQAAFREHLRCSGTETVKDEDDVLEASEVAARYTGEHLSVYRLRYVPRFQTP, MAEPKSFNIPYRSKLTERIEPGQTLIIRGKTIDESKRFNINLHKDSPDFSGNDVPLHLSIRFDEGKIVYNAYTKGTWGKEERAKNPIKKGDDFDIRIRAHDSKFQVSINHKEVKNFEHRIPLNSVSHLSIDGDVVLNHVQWGGKYYPVPYESGIAADGLVPGKTLVVYGTPEKKAKKFNINLLKKNGDIALHFNPRFDEKANGFMCAKPTPGSVVRNSLVNGEWGNEEREGKNPFERLTAFDLEIRNEEFAFQIFVNGERFASYAHRVDPHDIAGLQIQGDIELTGIQVVNNQPAQE, QTVIKGLVLAADNEAPVSYASIYVAETKSGVVADESGRFILRLHPGRYRLAIRSMGYTPLETELLVGEKSEEKTFRLSSVIYDLKEVEVIGKRPKEDPAYPIMRELIARTPVYEHMVKSYQAKVYTKGSMRLDKLPFWLRYKKADGISAKDLEKKRFVIESQASLEFRHPNKYNKQVRAMRSSIPDDLKSDTTDYMQIISTNIYAKEFSLDGIVNMASPIRTGVLESYTYKLEGTSREKERKVYHISFKGRRDAMRGELWVIDSIWCLQALKLEIKAYDMIRYKVDISLNPLEKDVYLPTTYAIGMEMQSMGLKLEYQYFSSLVYDSLEIDRKLLSTARRAEGLRFRTNREVNRHLRMLESRLDTLGYHLPDKYMLPDTELQAKVRFDSLAFDRDSSYWDAVVTAPLTDEEAQSYANRDSLMQAFEKKRRFGGGREGERTGRTSILGAILGGHDYKMGEGTTLGFNGLIRGSLYDYRYTDGFWLGQSFFFRQKFSKGVDLTLRPILYYTTHRRKLYWDVRADFRYAPLSGGLLSLSAGRQSADLTGPFANTDWRIQTFLTTLVDGRGHLMLYDKKYLRLSNQIDLLPGLQLFLFAEGRHSSPLAENRVWGIFKKPIKNKLIGGIASSPDSLLYSMPDHRSLTVGGSIRYNPAPYYRLDKDGRKRYDGVGTRAPLFGLTYRQAIPLGREHDSDYIYLSGSVRQNLRLNPLHSLYYHFTVGSYFRRHTVHLDEQRYLKADNALFQIGGTLHDSFQTLPPYSYTDQNFLILQTR, MGSDKIHHHHHHMFSVEQLQAFITTVETGSFSAAARRLNKVQSVVSQHVINLEVDCNILLFDRSGRYPALTEAGEKLLPHAQAVIDQHQRLKNSALSLTDNTPKEITIALDEGISFKLISGIISNLQNEFPNITLEFLSASSPDIIDMLKNEKALTGIVFSELTIPSYLDFECIGSIKFDLYVAKSHPLANQVCKNIDSLRLHRQLLIRSRNTQSSSFQLKLSPNVWYADNYFLLLELALQGNGWCLLPNHIANESVESGQLVKLPLEFEEMGWQANVDVVQHQRHSNLAVFKVLRLLLRNLL, MAWSRVGDNIATHPLMSRLLTSCEFDHSLKNEAFGALVQLTTVSAAHLTDYIIEYGLMAQIAPGREKQLIDVLVDAGMLFRDEVDGRKVLRIVDDNELLHNRSRDEVEIDRRRAADKRNPALIPAVRYRDGDQCRWCGRTVDWRDRKGGRAATIDSLNEHRESTVDTLVVACKSCNSKRGAGEELQLLPTPTREKVHYTDHTIDWINRSEWAQHEGIHLEPRQTHLDIGQQITTPAAPSEQQQVGQAAAPLEAAARAHRAAPDVEAPFVSDPLDEAPDWVKQSLVNDHGQAAAPLMAAAPREHDHAPAAPSEQQQVGQAAAPLEAAARAHRAAPDVEAPPQHHVDNETVKPSTDLEQITDRWGDGSRSLGTGRDGNGQVGTARRRRRRRRGGRGTGRNKAHG, MGSDKIHHHHHHMDQSFQVNLNRLRYFHAILEHGSIRAAAERLNTAPSVVSRQLQLLESEIGAPLFERRQHGMIATEAATLLVEYTHACRIGLEQFHESLHGELRGRVEIALTVGYVEDLMDSVITGFLHRHPHVAVELNVRTADGVVDDVLRKRAHIGLTYNPSLPPEIRECLSVEHPTFLAVAPDHPLAKRGEPLELRDAVRYPLALMPAPYYGVGQIVHTVAHAENIPLAPRLVTNSVPAMRRFVRSGNGVAFLTRLLVEDDLERGEIVALRMRNPLFNSPCGKVLVHNERALPRAANEILARIVRDLPSFKS, MKMKLTAAIIAAFVIIMGCAGGPKASKADELDLAIRDTSDYLNDNIPKGNKIIILNIQSDYASLSDYIIDELIANAVNDKIFKVVDRAQLEQIRAELNFQWSGEVDDKSALEIGKFLGAQTIVSGAISELGDRYRMRLRALNVQTSQVQGQYNRNIAAGKTIAALMKGGKSANTVYGGRTASGNANDTTAANQTPSRQPATPSSPQGSTKPVTTTYKIGDTGPAGGLIFYDKGNNIGGWRYLEAAPSDLGPNKFITEDPGSLPKNLYDLWEKTDGDKGRGVGKGKYNTEFLMGIAQARGGFNWAIRLCDEYELNGYNDWFMPSRDELNFMYGNLHMKGLGNFRLEQYWSSTGWQDTWGSYSAWYINFEDGTAAYQNASQPRRFRPIRQF, NRGIEFSGGRNYVVKFDQPVSSEAVRSALSSPLQEKVLVTSIGTEGTEVRISTNYKIQEESEETEAEITDKLYQSLKGFYTQQPTADQFLDNIISSQKVSPSMSSDITRGA, MSLRGLSTDHTTQIVNLEDNTQDLLLLLSLFKKITNVNPSKNFNVILASSLNEVGTLKVILNLYSSAHLIRINDEPILGQITLTFISELCSIEPIAAKLINSGLYSVLLESPLSVAIQQGDIKPEFSPRLHNIWSNGLLSIVLLLLSQFGIKVLPETCLFVSYFGKQIKSTIYNWGDNKLAVSSSLIKETNQLVLLQKMLNLLNYQELFIQPKNSDDQQEAVELVIGLDSEHDKKRLSAALSKFLTHPKYLNSRIIPTTLEEQQQLEDESSRLEFVKGISRDIKALQDSLFEGHHHHHH

Soluble on expression in E. coli, soluble:
AFNNNPSSVGAYSSGTYRNLAQEMGKTNIQQKVNSTFDNMFGYNNTQQLYYPYTENGVYKAHYIKAINPDEGDDIRTEGQSWGMTAAVMLNKQEEFDNLWRFAKAYQKNPDNHPDAKKQGVYAWKLKLNQNGFVYKVDEGPAPAGEEYFAFALLNASARWGNSGEFNYYNDAITMLNTIKNKLMENQIIRFSPYIDNLTDPSYHIPAFYDYFANNVTNQADKNYWRQVATKSRTLLKNHFTKVSGSPHWNLPTFLSRLDGSPVIGYIFNGQANPGQWYEFDAWRVIMNVGLDAHLMGAQAWHKSAVNKALGFLSYAKTNNSKNCYEQVYSYGGAQNRGCAGEGQKAANAVALLASTNAGQANEFFNEFWSLSQPTGDYRYYNGSLYMLAMLHVSGNFKFYNNTFN, MSLKHLGQTRSALHGSHAVITPETFVRTALAEWPGSAIVLHIAPVVGLGARFVQFTAEMPAGAQATESVYQRFAFVLSGEVDVAVGGETRTLREYDYVYLPAGEKHMLTAKTDARVSVFEKPYQTVEGVQAPGVYWGNERENPGYPFEGDDHLIARKLLPDEPAFDFMVSTMSFAPGASLPYAEVHYMEHGLLMLEGEGLYKLEENYYPVTAGDIIWMGAHCPQWYGALGRNWSKYLLYKDMNRHPLEGGSHHHHHH, MGKLKWFSGGKERSNQAENIITDLLDDLKTDLDNESLKKVLENYLEELKQKSASVPLILSRMNLDISKAIRNDGVTLSDYQSKKLKELTSISNIRYGY, EREEEPAVQGNPDESLTVEGALEYVELAPQLNLPQQEEDADFHTVAGLIMEELQTIPDVGDFADFHGWRFEVVEKEGQRIERVKITKLP, MKIVYWSGTGNTEKMAELIAKGIIESGKDVNTINVSDVNIDELLNEDILILGCSAMADEVLEESEFEPFIEEISTKISGKKVALFGSYGWGDGKWMRDFEERMNGYGCVVVETPLIVQNEPDEAEQDCIEFGKKIANI, MIKLTVSHHKLTASGHALFAKKGQDIVCAAVSGIIFGALPWFETNSIAVQEDATVPSLSLELVQPTAKLITGLSVVIMQLKTLAHSYPQFISFEDQRKDE, GSKEKLKEIKLLVCNIDGCLTNGHIYVSGDQKEIISYDVKDAIGISLLKKSGIEVRLISERACSKQTLSALKLDCKTEVSVSDKLATVDEWRKEMGLCWKEVAYLGNEVSDEECLKRVGLSAVPADACSGAQKAVGYICKCSGGRGAIREFAEHIFLLIEKVNNSCQK
